Test results published in publication PMC5430875.

Target: cynomolgus monkey FcRn (cynomolgus monkey) (UniProt Q8SPV9)
Assay: SPR; Biacore T200, pH 6.0; antibody and FcRn; who was immobilised is not told (details in Supplementary Information)

Sequence of UniProt Q8SPV9 (Q8SPV9 24-365): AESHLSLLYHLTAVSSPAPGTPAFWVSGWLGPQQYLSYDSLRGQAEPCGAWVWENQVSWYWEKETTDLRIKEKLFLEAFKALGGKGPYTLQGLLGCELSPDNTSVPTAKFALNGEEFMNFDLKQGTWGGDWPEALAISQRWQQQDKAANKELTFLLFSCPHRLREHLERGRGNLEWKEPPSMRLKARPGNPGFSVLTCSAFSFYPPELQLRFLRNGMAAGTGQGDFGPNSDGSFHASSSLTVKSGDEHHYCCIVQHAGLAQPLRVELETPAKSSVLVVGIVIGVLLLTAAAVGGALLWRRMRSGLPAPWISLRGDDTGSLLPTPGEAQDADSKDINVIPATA

## trastuzumab (antibody)
  Kd: 1980 nM
